Target: T1, Rubisco L8S8 hexadecamer (Form IB ribulose 1,5-bisphosphate carboxylase/oxygenase) of Synechococcus elongatus … (Synechococcus elongatus PCC7942 …, UniProt Q31NB3 1-472; Q31NB2 1-111)
T1 construct: RbcL, Rubisco large subunit, Synechococcus elongatus PCC7942; printed MW 52.4 kDa; RbcS, Rubisco small subunit, Synechococcus elongatus PCC7942; printed MW 13.3 kDa; Native holoenzyme imaged inside isolated β-carboxysomes; never isolated on its own; also called Rubisco complex; Rubisco holoenzyme; source: endogenous, inside β-carboxysomes purified from Syn7942 (sucrose gradient …)
T1 sequence (Q31NB2 whole entry, chain 2 of 2, other chains not shown): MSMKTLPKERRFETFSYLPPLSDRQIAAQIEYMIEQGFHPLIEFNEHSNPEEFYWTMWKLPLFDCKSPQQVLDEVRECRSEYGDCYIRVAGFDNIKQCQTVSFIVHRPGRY
Assay: cryo-EM structure; cryo-electron tomography and subtomogram averaging (emClarity) of Rubisco inside intact β-carboxysomes isolated from Syn7942 grown under low light; 185 carboxysomes; D4 symmetry applied; 3.5 Å
Conditions: partners not purified

B1: CcmM, Rubisco-scaffolding linker protein of the Syn7942 β-carboxysome (natural protein, UniProt Q03513-2 1-324, looked up)
chain: MSAYNGQGRLSSEVITQVRSLLNQGYRIGTEHADKRRFRTSSWQPCAPIQSTNERQVLSELENCLSEHEGEYVRLLGIDTNTRSRVFEALIQRPDGSVPESLGSQPVAVASGGGRQSSYASVSGNLSAEVVNKVRNLLAQGYRIGTEHADKRRFRTSSWQSCAPIQSSNERQVLAELENCLSEHEGEYVRLLGIDTASRSRVFEALIQDPQGPVGSAKAAAAPVSSATPSSHSYTSNGSSSSDVAGQVRGLLAQGYRISAEVADKRRFQTSSWQSLPALSGQSEATVLPALESILQEHKGKYVRLIGIDPAARRRVAELLIQKP
notes: CcmM, Synechococcus elongatus PCC7942; Mixture of CcmM58 and CcmM35 in the native carboxysome; only an SSUL module is resolved; also called CcmM SSUL; CcmM58; source: endogenous, inside β-carboxysomes purified from Syn7942 (sucrose gradient ultracentrifugation)
stoichiometry N: 4 SSUL domains per Rubisco

Reference: doi:10.1101/2024.09.20.614183, “Rubisco packaging and stoichiometric composition of a native β-carboxysome” (bioRxiv, 2024)
